From article PMC9912195, “The 3D‐structure, kinetics and dynamics of the E. coli nitroreductase NfsA with NADP ^+ provide glimpses of its catalytic mechanism” (Febs Letters, 2022)

What was measured:
NfsA [1] = target: T1, NfsA (Escherichia coli, UniProt P17117); assay: stopped-flow re-oxidation of reduced enzyme, […] nm, anaerobic; type: biochemical; settings: dithionite-reduced enzyme
T1 construct: full-length, untagged, from pET24 derivative pPS1341A1 in E. coli BL21(lambda DE3); 240 amino acids

NfsA [2] = target: T1, NfsA; assay: steady-state inhibition of nitrofurazone reduction, global ping-pong fit, […] nm; type: biochemical
NfsA [3] = target: T1, NfsA; assay: steady-state kinetics; type: biochemical; settings: co-substrate NADPH
[4] = tested on: NC(=O)C1=CN([C@@H]2O[C@H](COP(=O)(O)OP(=O)(O)OC[C@H]3O[C@@H](n4cnc5c(N)ncnc54)[C@H](O)[C@@H]3O)[C@@H](O)[C@H]2O)C=CC1; assay: purified protein; type: biochemical, Escherichia coli; settings: 100 μM nitrofurazone, 10 mM Tris pH 7.0, 4.5% DMSO, 25 °C
[5] = tested on: NC(=O)N/N=C/c1ccc([N+](=O)[O-])o1; assay: purified protein; type: biochemical, Escherichia coli; settings: co-substrate NADPH, 10 mM Tris pH 7.0, 50 mM NaCl, 4.5% DMSO, 25 °C
[6] = tested on: NC(=O)C1=CN([C@@H]2O[C@H](COP(=O)(O)OP(=O)(O)OC[C@H]3O[C@@H](n4cnc5c(N)ncnc54)[C@H](OP(=O)(O)O)[C@@H]3O)[C@@H](O)[C@H]2O)C=CC1; assay: purified protein; type: biochemical, Escherichia coli; settings: 100 μM nitrofurazone, 10 mM Tris pH 7.0, 4.5% DMSO, 25 °C

T1 sequence (P17117 whole entry): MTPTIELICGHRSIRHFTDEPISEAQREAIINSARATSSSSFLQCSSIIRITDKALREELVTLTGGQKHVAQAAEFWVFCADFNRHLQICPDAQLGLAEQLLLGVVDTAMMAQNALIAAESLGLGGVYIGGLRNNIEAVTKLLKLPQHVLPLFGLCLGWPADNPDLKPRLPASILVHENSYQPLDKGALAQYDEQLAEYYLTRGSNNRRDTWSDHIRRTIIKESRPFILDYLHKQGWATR

NC(=O)c1cc(N2CC2)c([N+](=O)[O-])cc1[N+](=O)[O-] [CB1954, 5 aziridin‐1‐yl‐2,4 dinitrobenzamide]
K d (NfsA [1]; 10 mM Tris pH 7, 5% DMSO, 25 °C, unreliable (extrapolated beyond highest concentration 500 μM)): 660 ± 90 µM

NC(=O)c1ccc[n+]([C@@H]2O[C@H](COP(=O)(O)OP(=O)(O)OC[C@H]3O[C@@H](n4cnc5c(N)ncnc54)[C@H](OP(=O)(O)O)[C@@H]3O)[C@@H](O)[C@H]2O)c1 [NADP^+]
Ki (NfsA [2]): 250 ± 70 µM

CC1=CC(=O)c2ccccc2C1=O [menadione]
Km (NfsA [3]): 11 ± 2 µM | K d (NfsA [1]; 10 mM Tris pH 7, 25 °C, unreliable (extrapolated, highest concentration 100 μM)): 330 ± 115 µM

NfsA (Escherichia coli K-12)
Km [4]: 700 ± 100 µM | kcat [4]: 20 ± 1 s⁻¹ | kcat/Km [4]: 27000 ± 3000 M⁻¹ s⁻¹ | Km [5]: 12 µM | kcat [5]: 23.1 s⁻¹ | Km [6]: 19 ± 4 µM | kcat [6]: 24 ± 1 s⁻¹ | kcat/Km [6]: 1.2e+06 ± 200000 M⁻¹ s⁻¹
